Substrate in this series: Nc1nc2c(ncn2[C@@H]2O[C@H](COP(=O)(O)OP(=O)(O)OP(=O)(O)O)[C@@H](O)[C@H]2O)c(=O)[nH]1
Nature of the series: radioactive GTPase assay, thin-layer chromatography, Lineweaver-Burk. Type of series: biochemical, Saccharomyces cerevisiae. Conditions: pH 7.4, 37 °C, 5 mM MgCl2, 5 mM KCl, 25 mM HEPES, 100 mM sucrose, 60 min, labelled compound [α-32P]GTP 0.1-1.2 μM, no GAP, GEF or Gtr2.

This note sets out measurements from article PMC3477016, “The intrinsic GTPase activity of the Gtr1 protein from Saccharomyces cerevisiae” (BMC Biochemistry, 2012).

B1: Gtr1 (Saccharomyces cerevisiae S288C) (protein)
chain: MSSNNRKKLLLMGRSGSGKSSMRSIIFSNYSAFDTRRLGATIDVEHSHLRFLGNMTLNLWDCGGQDVFMENYFTKQKDHIFQMVQVLIHVFDVESTEVLKDIEIFAKALKQLRKYSPDAKIFVLLHKMDLVQLDKREELFQIMMKNLSETSSEFGFPNLIGFPTSIWDESLYKAWSQIVCSLIPNMSNHQSNLKKFKEIMNALEIILFERTTFLVICSSNGENSNENHDSSDNNNVLLDPKRFEKISNIMKNFKQSCTKLKSGFKTLILNNNIYVSELSSNMVCFIVLKDMNIPQELVLENIKKAKEFFQ
notes: full-length, N-terminal His6 tag (pET28a+ named in acknowledgements), expressed in E. coli, Ni-NTA purified, 36 kDa, monomer (without Gtr2); printed PDB id is of the Gtr1-Gtr2 complex of others
By Km is commonly meant the substrate concentration at which the rate is half of its maximum. The term kcat denotes the number of substrate molecules converted per active site and unit of time at saturation. As for B1, the Km turned out to be 1.0 µM and the kcat came to 6.7e-05 s⁻¹.
